Measured values from patent publication US7524646B2 (priority 2001, dated 2009).
Entries after “also recorded” stand apart in the source; their conditions may differ.

Columns and labels:
[1] = test system: strains bearing thyA:Val146 alleles; experiment: Cysteine suppression of thyA:Val146 alleles on gradient plates; format: cell-based, E. coli; details: gradient starting at 100 mM L-cysteine, no thymidine
Procedure: […] Ile-Val (0.3 mM) was added in one plate as a control. The dipeptide Ile-Val was purchased from Bachem A G (Bubendorf, Switzerland). Plates were incubated for 2 days at 30° C.
We took advantage of the thyA conditional selection screen in E. coli, based on the absolute requirement for an active thymidylate synthase when thymidine is not provided as a growth factor (13). This same screen was used previously to assess the potency of suppressor Cys-tRNAs in codon misreading (14) and to enforce phenotypic suppression by the non-canonical azaleucine (15). An entire set of plasmid-borne thyA alleles with all 64 different codons at position 146 was constructed for altering the catalytic site occupied by an essential Cys (16, 17). Each allele was tested for its ability to restore growth to an E. coli strain (lacking the chromosomal copy of thyA) on mineral glucose medium in the absence of thymidine (14, 15). Three of the 64 plasmid-borne thyA alleles restored growth. These had one of three codons-UGU, UGC, or UGA. The growth responses of the UGU and UGC alleles were expected, as these code for cysteine.
Shallow growth was reproducibly observed on L-cysteine gradient plates (18) for the missense alleles having any of the eight codons AUN and GUN alone. […]

[2] = test system: parent strain β5419; experiment: Growth of parent strain in the presence of L-threonine; format: cell-based, E. coli; details: all concentrations
Procedure: (§1) FIG. 1C: Photographs showing the results of growth of a strain carrying the valS:T222P allele in the presence of L-threonine or Abu. Minimal medium plates supplemented with thymidine (0.3 mM) were pretreated with amino acid solutions by streaking either with Thr (50 μl (0.2 M)) or Abu (50 μl (0.1 M)) vertically along the diameter of the plate to create an amino acid gradient. Mutant (β5456) and wild-type (β5419 (thyA::erm+ ΔnrdD::kan+ pTS13 (bla+ thyA: 146GUA)) strains were then streaked horizontally across the plates and incubated for 2 days at 37° C.
(§2) ValRS is known to misactivate Thr and generate Thr-tRNA^Val, which normally is hydrolyzed by the ValRS editing activity (9). If the ValRS mutants in Table 1 are impared for editing, then strains bearing each of these mutations should misincoporate Thr into protein, and L-threonine would then be toxic in these strains. The growth of the five different valS strains was therefore tested in the presence of L-threonine.

[3] = test system: five different valS strains (editing mutants); format: cell-based, E. coli; details: at 2 mM
Procedure: as §1, §2

[4] = test system: strain β5520; experiment: Suppression of thymidine auxotrophy by S-carbamoyl-cysteine; format: cell-based, E. coli; details: absence of thymidine, aerobic
Procedure: One-step selection scheme. For the one-step selections, cysteine oxidation under aerobiosis and subsequent cystine precipitation from the growth medium was avoided by use of the non-oxidizable precursor S-carbamoyl-cysteine (Scc). Scc is a poor precursor of cysteine and sustains growth of a Cys-auxotrophic E. coli strain less efficiently than cysteine. However, at concentrations above 1 mM, Scc gave rise to suppression of the thymidine auxotrophy of strain β5520, while in the absence of thymidine no growth was detectable below 1 mM Scc. When β5419 cells bearing the thyA:Val146GUA allele on a high copy plasmid were plated on mineral glucose plates supplemented with Scc (3 mM), no colonies grew after prolonged incubation at 30° C. (The experiment was designed to detect a mutant at a frequency of 10^−10.) To increase the mutation frequency, a mutS::spc+ (33) mutator allele was introduced in the genetic background of strain β5419 by P1 transduction, yielding strain β5432 (the mutS::spc+ disruption disables the mismatch repair system and leads to random transitions and frameshifts (34)). Colonies then appeared on the same medium with a frequency of about 10^−8. No colonies were found on plates lacking Scc.

[5] = test system: tRNA^Val; experiment: Misacylation of tRNAVal with cysteine; format: biochemical, E. coli
Excerpt: The T222P mutant enzyme was, therefore, expressed and partially purified so that it could be directly assayed for the ability to misacylate tRNA^Val.

[6] = test system: tRNA^Val; experiment: Aminoacylation of tRNAVal with Val; format: biochemical, E. coli; details: pH 7.5, 37° C.
Procedure: (§3) FIG. 2B: A graph showing misaminoacylation of tRNA^Val with Thr by the T222P mutant enzyme at pH 7.5 and 37° C. The wild-type (WT) and mutant alleles were cloned under the control of a PBAD promoter (30). The enzymes were partially purified from a laboratory strain lacking the chromosomal copy of the valS gene (ΔvalS::kan+). The purification and aminoacylation procedures were adapted from Hendrickson et al. (31). (Main panel) Misaminoacylation of tRNA^Val with Thr by the two enzymes. (Inset) Aminoacylation of tRNA^Val with Val by the two enzymes.
(§4) Aminoaclyation Assay, Misacylation, and Deacylation: Aminoacylation assays were performed at 37 C. in a 100 uL volume containing buffer (20 mM HEPES, 0.1 mM EDTA disodium salt, 0.15M NH4Cl, 10 ug/mL BSA pH 7.5), […] MgCl2, 0.7 μM [^3H]Val, 20 μM cold Val, 2 μM tRNAval (Sigma) and 20 nM ValRS enzyme (adapted from Hendrickson et al. 2000). Aliquots (10 μL) of the reaction mixture were precipitated with tricholoracetic acid, and the level of aminoacylation of the tRNA was determined by scintillation counting.

[7] = test system: [^3H]Thr-tRNAval; experiment: Deacylation of mischarged Thr-tRNAVal by ValRS enzymes; format: biochemical, E. coli; details: 2 nM enzyme, room temperature
Procedure: FIG. 5B: Histogram representation of the inhibition zone diameters of DvalS::kanR strains harboring each of the ValRS editing mutants on plasmid in response to exogenous Abu. Effects range from mild to severe. Histogram representation of the percentage of mischarged Thr-tRNAVal remaining after incubation with 2 nM enzyme for 15 minutes at room temperature. Both show a distinct range in the severity of editing defects caused by these point mutations. Taken together this illustrates a correlation between the ability of the mutant enzyme to deacylate mischarged amino acids from tRNAVal in vitro and the degree of in vivo toxicity.
(§5) Misacylation of Thr onto tRNAval was performed in the same conditions except 5.86 μM [^3H]Thr was substituted forVal in the reaction. To test deacylation rates for these enzymes it was necessary to generate [^3H]Thr-tRNAval. […] Enzyme was incubated with 2.5 μM tRNAval and 45 uM [^3H]Thr, incubated at 37 C. for 45 minutes, extracted twice in phenol:chloroform, and ethanol precipitated. Pellet was dissolved in 100 μL sterile H2O and scintillation counting was used to determine the success of the reaction. Deacylation reactions, done in triplicate for each enzyme, were performed in 155 mM Tris-HCl (pH 7.5), 100 μg/ml BSA, 10 mM MgCl2. At room temperature 2 nM enzyme was combined with [^3H]Thr-tRNAval, at 3, 6, 9, 16, and 30 minutes aliquots (9 μL) of the reaction mixture were precipitated with tricholoracetic acid, and the amount of misaminoacylated [^3H]Thr-tRNAval remaining in the sample was determined by scintillation counting. A no enzyme control reaction was included to provide reference point.

[8] = test system: tRNA^Val; experiment: Misacylation of tRNAVal with Thr; format: biochemical, E. coli; details: pH 7.5, 37° C.
Procedure: as §3, §4, §5

N[C@@H](CS)C(=O)O [L-cysteine]
suppression of thyA:Val146 alleles [1]: weak

C[C@@H](O)[C@H](N)C(=O)O [L-threonine]
sensitivity of growth to exogenous L-threonine [2]: insensitive | sensitivity of growth to exogenous L-threonine [3]: high sensitivity

NC(=O)SC[C@H](N)C(=O)O [Scc, S-carbamoyl-cysteine]
concentration giving suppression of the thymidine auxotrophy [4]: above 1 mM

B1: T222P (protein, UniProt P07118 1-951, looked up, variant T222P)
Valine--tRNA ligase: MEKTYNPQDIEQPLYEHWEKQGYFKPNGDESQESFCIMIPPPNVTGSLHMGHAFQQTIMDTMIRYQRMQGKNTLWQVGTDHAGIATQMVVERKIAAEEGKTRHDYGREAFIDKIWEWKAESGGTITRQMRRLGNSVDWERERFTMDEGLSNAVKEVFVRLYKEDLIYRGKRLVNWDPKLRTAISDLEVENRESKGSMWHIRYPLADGAKTADGKDYLVVATPRPETLLGDTGVAVNPEDPRYKDLIGKYVILPLVNRRIPIVGDEHADMEKGTGCVKITPAHDFNDYEVGKRHALPMINILTFDGDIRESAQVFDTKGNESDVYSSEIPAEFQKLERFAARKAVVAAVDALGLLEEIKPHDLTVPYGDRGGVVIEPMLTDQWYVRADVLAKPAVEAVENGDIQFVPKQYENMYFSWMRDIQDWCISRQLWWGHRIPAWYDEAGNVYVGRNEDEVRKENNLGADVVLRQDEDVLDTWFSSALWTFSTLGWPENTDALRQFHPTSVMVSGFDIIFFWIARMIMMTMHFIKDENGKPQVPFHTVYMTGLIRDDEGQKMSKSKGNVIDPLDMVDGISLPELLEKRTGNMMQPQLADKIRKRTEKQFPNGIEPHGTDALRFTLAALASTGRDINWDMKRLEGYRNFCNKLWNASRFVLMNTEGQDCGFNGGEMTLSLADRWILAEFNQTIKAYREALDSFRFDIAAGILYEFTWNQFCDWYLELTKPVMNGGTEAELRGTRHTLVTVLEGLLRLAHPIIPFITETIWQRVKVLCGITADTIMLQPFPQYDASQVDEAALADTEWLKQAIVAVRNIRAEMNIAPGKPLELLLRGCSADAERRVNENRGFLQTLARLESITVLPADDKGPVSVTKIIDGAELLIPMAGLINKEDELARLAKEVAKIEGEISRIENKLANEGFVARAPEAVIAKEREKLEGYAEAKAKLIEQQAVIAAL
misacylation of tRNA^Val with cysteine [5]: catalyzed only by the mutant enzyme | activity for charging tRNA^Val with valine [6]: same activity as the wild-type enzyme | deacylation of Thr-tRNA^Val in vitro [7]: most severe defects | misacylation of tRNA^Val with Thr [8]: high levels of mischarged Thr-tRNA^Val; also recorded: misacylated tRNA^Val with Thr

B2: V276A: ValRS of E. coli with single substitution V276A in the editing domain (protein, UniProt P07118 1-951, looked up, variant V276A)
Valine--tRNA ligase: MEKTYNPQDIEQPLYEHWEKQGYFKPNGDESQESFCIMIPPPNVTGSLHMGHAFQQTIMDTMIRYQRMQGKNTLWQVGTDHAGIATQMVVERKIAAEEGKTRHDYGREAFIDKIWEWKAESGGTITRQMRRLGNSVDWERERFTMDEGLSNAVKEVFVRLYKEDLIYRGKRLVNWDPKLRTAISDLEVENRESKGSMWHIRYPLADGAKTADGKDYLVVATTRPETLLGDTGVAVNPEDPRYKDLIGKYVILPLVNRRIPIVGDEHADMEKGTGCAKITPAHDFNDYEVGKRHALPMINILTFDGDIRESAQVFDTKGNESDVYSSEIPAEFQKLERFAARKAVVAAVDALGLLEEIKPHDLTVPYGDRGGVVIEPMLTDQWYVRADVLAKPAVEAVENGDIQFVPKQYENMYFSWMRDIQDWCISRQLWWGHRIPAWYDEAGNVYVGRNEDEVRKENNLGADVVLRQDEDVLDTWFSSALWTFSTLGWPENTDALRQFHPTSVMVSGFDIIFFWIARMIMMTMHFIKDENGKPQVPFHTVYMTGLIRDDEGQKMSKSKGNVIDPLDMVDGISLPELLEKRTGNMMQPQLADKIRKRTEKQFPNGIEPHGTDALRFTLAALASTGRDINWDMKRLEGYRNFCNKLWNASRFVLMNTEGQDCGFNGGEMTLSLADRWILAEFNQTIKAYREALDSFRFDIAAGILYEFTWNQFCDWYLELTKPVMNGGTEAELRGTRHTLVTVLEGLLRLAHPIIPFITETIWQRVKVLCGITADTIMLQPFPQYDASQVDEAALADTEWLKQAIVAVRNIRAEMNIAPGKPLELLLRGCSADAERRVNENRGFLQTLARLESITVLPADDKGPVSVTKIIDGAELLIPMAGLINKEDELARLAKEVAKIEGEISRIENKLANEGFVARAPEAVIAKEREKLEGYAEAKAKLIEQQAVIAAL
deacylation of Thr-tRNA^Val in vitro [7]: closer to wild-type ValRS | misacylation of tRNA^Val with Thr [8]: low levels of mischarging
